Measured values: US20250163169

T1: 43-mer covering the stalk region of CD95L (residue 103 to residue 145)
T1 chain: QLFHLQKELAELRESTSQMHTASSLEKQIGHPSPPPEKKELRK

T2: Recombinant Ig-CD95L
T2 chain: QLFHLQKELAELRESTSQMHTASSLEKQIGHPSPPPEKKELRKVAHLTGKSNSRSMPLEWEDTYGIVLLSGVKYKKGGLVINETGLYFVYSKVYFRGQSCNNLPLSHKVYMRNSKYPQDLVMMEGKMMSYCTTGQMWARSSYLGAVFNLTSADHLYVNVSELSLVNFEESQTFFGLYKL

B1: ADAM10 (protein)
chain: TTSAEKNTCQLYIQTDHLFFKYYGTREAVIAQISSHVKAIDTIYQTTDFSGIRNISFMVKRIRINTTADEKDPTNPFRFPNIGVEKFLELNSEQNHDDYCLAYVFTDRDFDDGVLGLAWVGAPSGSSGGICEKSKLYSDGKKKSLNTGIITVQNYGSHVPPKVSHITFAHEVGHNFGSPHDSGTECTPGESKNLGQKENGNYIMYARATSGDKLNNNKFSLCSIRNISQVLEKKRNNCFVESGQPICGNGMVEQGEECDCGYSDQCKDECCFDANQPEGRKCKLKPGKQCSPSQGPCCTAQCAFKSKSEKCRDDSDCAREGICNGFTALCPASDPKPNFTDCNRHTQVCINGQCAGSICEKYGLEECTCASSDGKDDKELCHVCCMKKMDPSTCASTGSVQWSRHFSGRTITLQPGSPCNDFRGYCDVFMRCRLVDADGPLARLKKAIFSPELYENIAE
B2: MMP12 (protein)
chain: GPVWRKHYITYRINNYTPDMNREDVDYAIRKAFQVWSNVTPLKFSKINTGMADILVVFARGAHGDFHAFDGKGGILAHAFGPGSGIGGDAHFDEDEFWTTHSGGTNLFLTAVHEIGHSLGLGHSSDPKAVMFPTYKYVDINTFRLSADDIRGIQSLYGDPKENQRLPNPDNSEPALCDPNLSFDAVTTVGNKIFFFKDRFFWLKVSERPKTSVNLISSLWPTLPSGIEAAYEIEARNQVFLFKDDKYWLISNLRPEPNYPKSIHSFGFPNFVKKIDAAVFNPRFYRTYFFVDNQYWRYDERRQMMDPGYPKLITKNFQGIGPKIDAVFYSKNKYYYFFQGSNQFEYDFLLQRITKTLKSNSWFGC
B3: MMP7 (protein)
chain: YSLFPNSPKWTSKVVTYRIVSYTRDLPHITVDRLVSKALNMWGKEIPLHFRKVVWGTADIMIGFARGAHGDSYPFDGPGNTLAHAFAPGTGLGGDAHFDEDERWTDGSSLGINFLYAATHELGHSLGMGHSSDPNAVMYPTYGNGDPQNFKLSQDDIKGIQKLYGKRSNSRKK
B4: MMP2 (protein)
chain: YNFFPRKPKWDKNQITYRIIGYTPDLDPETVDDAFARAFQVWSDVTPLRFSRIHDGEADIMINFGRWEHGDGYPFDGKDGLLAHAFAPGTGVGGDSHFDDDELWTLGEGQVVRVKYGNADGEYCKFPFLFNGKEYNSCTDTGRSDGFLWCSTTYNFEKDGKYGFCPHEALFTMGGNAEGQPCKFPFRFQGTSYDSCTTEGRTDGYRWCGTTEDYDRDKKYGFCPETAMSTVGGNSEGAPCVFPFTFLGNKYESCTSAGRSDGKMWCATTANYDDDRKWGFCPDQGYSLFLVAAHEFGHAMGLEHSQDPGALMAPIYTYTKNFRLSQDDIKGIQELYGASPDIDLGTGPTPTLGPVTPEICKQDIVFDGIAQIRGEIFFFKDRFIWRTVTPRDKPMGPLLVATFWPELPEKIDAVYEAPQEEKAVFFAGNEYWIYSASTLERGYPKPLTSLGLPPDVQRVDAAFNWSKNKKTYIFAGDKFWRYNEVKKKMDPGFPKLIADAWNAIPDNLDAVVDLQGGGHSYFFKGAYYLKLENQSLKSVKFGSIKSDWLGC

Assays:
[1] = molecular target: T1, 43-mer covering the stalk region of …
[2] = molecular target: T2, Recombinant Ig-CD95L

| Protein | percentage of degradation of the 43-mer (LC-MS/MS) [1] | cleavage of Ig-CD95L (western blotting) [2] |
| --- | --- | --- |
| B1 | more of 20% of cleavage | – |
| B2 | more of 20% of cleavage | – |
| B3 | more of 20% of cleavage | – |
| B4 | more of 20% of cleavage | Using this Ig-CD95L, we showed that MMP2 and MMP3 can cleave CD95L |
